Publication PMC7893823

Experiments:
[1] = target: nucleosome core particle (NCP) with human histones H2A, H2B, H3.1 and H4 and the 145-base pair Widom 601 DNA, P04908;P06899;P68431;P62805; assay: gel shift assay; conditions: NCP 0.52 µM, dsDNA 50-mer competitor DNA included, read off a plot
[2] = target: human SET8 (KMT5A Isoform 2), Q9NQR1-2; assay: gel shift assay; conditions: NCPapd 0.52 µM, dsDNA 50-mer competitor DNA included, read off a plot
Chain of human SET8 (KMT5A Isoform 2), Q9NQR1-2 (Q9NQR1 whole entry, looked up, canonical isoform): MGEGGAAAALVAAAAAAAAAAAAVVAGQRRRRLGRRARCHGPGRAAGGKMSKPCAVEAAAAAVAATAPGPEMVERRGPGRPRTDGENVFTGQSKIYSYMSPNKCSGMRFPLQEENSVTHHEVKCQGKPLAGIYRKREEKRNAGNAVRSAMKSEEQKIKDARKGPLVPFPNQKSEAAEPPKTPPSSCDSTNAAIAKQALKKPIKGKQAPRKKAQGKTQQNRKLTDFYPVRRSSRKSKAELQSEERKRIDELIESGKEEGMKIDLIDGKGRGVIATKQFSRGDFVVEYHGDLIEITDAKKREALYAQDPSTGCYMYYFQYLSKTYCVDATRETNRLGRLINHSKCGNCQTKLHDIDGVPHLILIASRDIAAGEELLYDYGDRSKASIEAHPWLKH

Row | response ([1]; SET8 R188A/R192A 1.0 µM, parent: est. 61) | response ([1]; SET8 R188A/R192A 2.1 µM, parent: est. 91) | response ([2]; SET8 1.0 µM, parent: est. 61) | response ([2]; SET8 2.1 µM, parent: est. 91) | Substance
1 | 23% | 54% | – | – | human SET8 (KMT5A Isoform 2) (from UniProt Q9NQR1-2) R188A; R192A
2 | – | – | 4.5% | 13% | nucleosome core particle (NCP) with human histones H2A, H2B, H3.1 and H4 and the 145-base pair Widom 601 DNA (from UniProt P04908;P06899;P68431;P62805) H2A:E56T; H2A:E61T; H2A:E64T; H2A:D90S; H2A:E91T; H2A:E92T; H2B:E105T; H2B:E113T
